Patent publication US20110172153A1

What was measured:
[1] = biological target: rat parathyroid hormone receptor (PTHR) (UniProt P25961); experiment: competition binding; RG conformation
[2] = biological target: rat parathyroid hormone receptor (PTHR) (UniProt P25961); experiment: competition binding; R0 conformation

rat parathyroid hormone receptor (PTHR), sequence (P25961 27-591): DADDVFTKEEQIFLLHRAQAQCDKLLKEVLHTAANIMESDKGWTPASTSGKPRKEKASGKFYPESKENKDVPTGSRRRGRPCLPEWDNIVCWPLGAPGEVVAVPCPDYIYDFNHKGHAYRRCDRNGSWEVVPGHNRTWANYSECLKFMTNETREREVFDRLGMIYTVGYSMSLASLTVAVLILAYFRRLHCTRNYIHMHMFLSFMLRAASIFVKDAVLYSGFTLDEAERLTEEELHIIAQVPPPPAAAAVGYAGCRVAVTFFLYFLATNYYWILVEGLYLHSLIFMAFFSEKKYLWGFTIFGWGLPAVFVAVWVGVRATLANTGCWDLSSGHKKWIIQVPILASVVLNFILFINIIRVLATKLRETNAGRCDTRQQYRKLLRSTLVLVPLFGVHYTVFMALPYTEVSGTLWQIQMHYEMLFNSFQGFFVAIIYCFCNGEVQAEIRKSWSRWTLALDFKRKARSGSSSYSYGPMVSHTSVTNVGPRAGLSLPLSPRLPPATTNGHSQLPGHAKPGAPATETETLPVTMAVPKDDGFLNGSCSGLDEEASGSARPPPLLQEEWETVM

IC50 [1] [nM] | IC50 [2] [nM] | Substance
0.56 | 1.9 | Mc-hPTH(1-34)OH
4.8 | 197 | H5,E19,Mc-hPTH(1-14)/rP(15-36)OH
1.7 | 9 | H5,Mc-hPTH(1-14)/rP(15-36)OH
0.49 | 20.3 | [A^23,E^19],Mc-hPTH(1-34)OH
0.32 | 26 | H5,Mc-hPTH(1-34)OH
0.44 | 20 | hPTHrP(1-36)
1.02 | 2.3 | [I^5]-PTHrP(1-36)
0.57 | 2.33 | [E^19],Mc-hPTH(1-34)OH
1.41 | 1390 | H5,E19,Mc-hPTH(1-34)OH
0.81 | 1.3 | Mc-PTH(1-14)/PTHrP(15-36)OH
0.73 | 1.8 | Mc-PTH(1-11)/PTHrP(12-36)OH
0.82 | 1.4 | Mc-PTH(1-18)/PTHrP(19-36)OH
